Results reported in publication PMC11602657, “Nap1 and Kap114 co-chaperone H2A-H2B and facilitate targeted histone release in the nucleus” (The Journal of Cell Biology, 2024).
Values belong to the molecule of their own block, whether it stands above or below them.

T1: Nap1 core (residues 75–365) (S. cerevisiae, UniProt P25293 75-365)
T1 chain: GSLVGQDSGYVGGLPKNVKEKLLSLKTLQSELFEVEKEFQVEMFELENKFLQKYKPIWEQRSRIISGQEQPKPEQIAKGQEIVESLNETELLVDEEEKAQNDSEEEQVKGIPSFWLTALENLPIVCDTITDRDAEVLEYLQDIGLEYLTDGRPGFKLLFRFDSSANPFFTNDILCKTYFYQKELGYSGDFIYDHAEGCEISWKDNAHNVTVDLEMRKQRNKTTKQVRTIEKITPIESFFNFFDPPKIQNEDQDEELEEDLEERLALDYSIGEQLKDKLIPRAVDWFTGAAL

T2: MBP-Kap114 (S. cerevisiae, UniProt P53067 1-1004)
T2 construct: TEV site between MBP and Kap114; pMalE modified with a His6-tag immediately N-terminal of MBP and a TEV site after MBP; held on amylose resin in the pull-downs; also called immobilized MBP-Kap114; iK; source: E. coli BL21 Gold, purified (amylose beads, HiTrap Q, SEC); not shown: MBP, N-terminal, kept
T2 sequence: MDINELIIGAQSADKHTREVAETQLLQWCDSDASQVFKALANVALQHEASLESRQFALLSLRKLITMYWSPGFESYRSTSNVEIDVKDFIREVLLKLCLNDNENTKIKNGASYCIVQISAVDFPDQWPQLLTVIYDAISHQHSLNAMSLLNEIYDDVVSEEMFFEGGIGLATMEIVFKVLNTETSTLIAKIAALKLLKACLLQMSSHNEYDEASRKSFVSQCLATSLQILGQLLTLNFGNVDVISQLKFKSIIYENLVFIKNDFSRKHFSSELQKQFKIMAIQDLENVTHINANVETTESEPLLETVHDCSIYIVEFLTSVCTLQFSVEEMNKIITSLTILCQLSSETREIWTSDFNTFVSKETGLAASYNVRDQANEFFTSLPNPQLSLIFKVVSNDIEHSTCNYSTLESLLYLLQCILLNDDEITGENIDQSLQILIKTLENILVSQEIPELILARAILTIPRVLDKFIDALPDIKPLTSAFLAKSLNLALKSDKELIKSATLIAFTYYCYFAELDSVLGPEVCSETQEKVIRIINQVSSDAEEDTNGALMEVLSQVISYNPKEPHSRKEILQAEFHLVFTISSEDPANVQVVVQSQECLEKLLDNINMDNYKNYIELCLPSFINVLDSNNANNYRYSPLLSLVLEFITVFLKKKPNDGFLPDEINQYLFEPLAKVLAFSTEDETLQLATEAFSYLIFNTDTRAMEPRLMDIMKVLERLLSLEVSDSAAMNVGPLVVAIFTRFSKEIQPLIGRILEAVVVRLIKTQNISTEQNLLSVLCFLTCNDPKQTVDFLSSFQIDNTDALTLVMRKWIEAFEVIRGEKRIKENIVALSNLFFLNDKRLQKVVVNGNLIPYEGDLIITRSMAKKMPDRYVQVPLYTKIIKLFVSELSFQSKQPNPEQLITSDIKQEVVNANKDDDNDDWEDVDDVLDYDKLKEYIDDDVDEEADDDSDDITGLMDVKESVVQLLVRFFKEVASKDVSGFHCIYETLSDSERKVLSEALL

B1: Kap114 (receptor, S. cerevisiae)
chain: T2 sequence
notes: also called Sc Kap114; source: E. coli, expressed as GST-Kap114, purified (Glutathione Sepharose 4B, on-column TEV cleavage, SEC)
B2: Nap1 core (residues 75–365), His tag removed (domain or fragment, S. cerevisiae, UniProt P25293 75-365, looked up)
chain: T1 chain
notes: Nap1 (nucleosome assembly protein 1), S. cerevisiae, core, residues 75–365; also called Nap1_(2) core; source: E. coli, purified (nickel-NTA, ion exchange, thrombin cleavage, SEC)
B3: Nap1 core (residues 75–365) (domain or fragment, S. cerevisiae, UniProt P25293 75-365, looked up)
chain: T1 chain
notes: Nap1 (nucleosome assembly protein 1), S. cerevisiae, core, residues 75–365; pET15b vector, gift from Karolin Luger; The His tag is said to be removed only for pull-down assays; also called His-Nap1 core; Nap1 core dimer; source: E. coli, purified (nickel-NTA, ion exchange, SEC)
B4: Nap1 α5/6mut (E194A/D201A/D205A) (natural protein, S. cerevisiae, UniProt P25293 1-417, looked up)
chain: MSDPIRTKPKSSMQIDNAPTPHNTPASVLNPSYLKNGNPVRAQAQEQDDKIGTINEEDILANQPLLLQSIQDRLGSLVGQDSGYVGGLPKNVKEKLLSLKTLQSELFEVEKEFQVEMFELENKFLQKYKPIWEQRSRIISGQEQPKPEQIAKGQEIVESLNETELLVDEEEKAQNDSEEEQVKGIPSFWLTALANLPIVAATITARDAEVLEYLQDIGLEYLTDGRPGFKLLFRFDSSANPFFTNDILAKTYFYQKELGYSGDFIYDHAEGAEISWKDNAHNVTVDLEMRKQRNKTTKQVRTIEKITPIESFFNFFDPPKIQNEDQDEELEEDLEERLALDYSIGEQLKDKLIPRAVDWFTGAALEFEFEEDEEEADEDEDEEEDDDHGLEDDDGESAEEQDDFAGRPEQAPECKQS
notes: also called mutant α5/6mut; source: E. coli BL21 gold, purified (Ni-NTA, TEV cleavage, HiTrap Q, Superdex S200)

Experiments:
[1] = target: Nap1 FL (C200A, C249A, C272A) (S. cerevisiae) (UniProt P25293); experiment: SEC-MALS; equimolar mixture of Kap114, Nap1_(2), H2A-H2B and Ran^GTP; Assay buffer without glycerol; Nap1 counted as dimer
Kap114 [2] = target: B1; experiment: as above
[3] = target: Nap1 FL (C200A, C249A, C272A) (S. cerevisiae) (UniProt P25293); experiment: SEC-MALS; 1:1:1 mixture of Kap114, Nap1_(2) and H2A-H2B (80 µM each), no Ran^GTP; Assay buffer without glycerol; Nap1 counted as dimer
Kap114 [4] = target: B1; experiment: as above
[5] = target: TBP (Saccharomyces cerevisiae) (UniProt P13393); conditions: cited from earlier work
[6] = target: T1, Nap1 core (residues 75–365); experiment: AUC
[7] = target: B3; experiment: AUC; sedimentation velocity; Kap114 titrated into the Nap1 core dimer; isotherm with one-site model; 20 mM Tris-HCl pH 7.5, 150 mM NaCl, 2 mM MgCl2, 2 mM TCEP; conditions: both partners purified
MBP-Kap114 = target: T2, MBP-Kap114; experiment: pull-down; MBP-Kap114 (WT or mutant; or MBP alone) 1 µM immobilized on amylose resin, equimolar Nap1_(2) ± H2A-H2B (1 or 2 µM) ± Ran^GTP; Assay Buffer (20 mM HEPES pH 7.4, 150 mM NaCl, 2 mM MgCl2, 10% glycerol, 2 mM DTT), 30 min at 4°C; Coomassie-stained SDS-PAGE; conditions: both partners purified
[8] = target: the molecule itself; experiment: cryo-EM structure; Nap1 core dimer:H2A-H2B 1:2, then 1 molar ratio Kap114, 0.05% glutaraldehyde 1 min, SEC; no Ran^GTP; gave Nap1_(2), Kap114•H2A-H2B and two ternary assemblies
Kap114 [9] = target: B1; experiment: AUC; sedimentation velocity c(s) of Kap114, Nap1_(2) core and Ran^GTP alone and in mixtures at indicated molar ratios; 20 mM Tris-HCl pH 7.5, 150 mM NaCl, 2 mM MgCl2, 2 mM TCEP; conditions: both partners purified

TBP (Saccharomyces cerevisiae), sequence (P13393 2-240): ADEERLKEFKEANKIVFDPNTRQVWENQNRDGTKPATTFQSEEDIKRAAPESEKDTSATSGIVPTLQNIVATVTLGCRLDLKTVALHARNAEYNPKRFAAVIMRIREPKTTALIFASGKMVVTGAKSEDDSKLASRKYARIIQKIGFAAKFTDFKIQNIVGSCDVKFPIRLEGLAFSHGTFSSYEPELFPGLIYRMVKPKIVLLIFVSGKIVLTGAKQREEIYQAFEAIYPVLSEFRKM

stoichiometry N [1]: 1
stoichiometry N (Kap114 [2]): 1
stoichiometry N [3]: 1
stoichiometry N (Kap114 [4]): 1
Molecule: Sc H2A-H2B (from UniProt P04911 2-124; P02293 5-131) (complex)

Molecule: Kap114 (from UniProt P53067)
Kd [5]: < 1 nM

Molecule: B1
Kd [6]: 1040 nM
stoichiometry N [7]: 1

Molecule: B2
binding result (MBP-Kap114): binds

Molecule: B3
binding result [8]: binds
binding result (Kap114 [9]): binds

Molecule: B4
binding result (MBP-Kap114): binds
